# B1: Chromosomal replication initiator protein DnaA (Escherichia coli (strain K12)), P03004 (parent)
# chain: MSLSLWQQCLARLQDELPATEFSMWIRPLQAELSDNTLALYAPNRFVLDWVRDKYLNNINGLLTSFCGADAPQLRFEVGTKPVTQTPQAAVTSNVAAPAQVAQTQPQRAAPSTRSGWDNVPAPAEPTYRSNVNVKHTFDNFVEGKSNQLARAAARQVADNPGGAYNPLFLYGGTGLGKTHLLHAVGNGIMARKPNAKVVYMHSERFVQDMVKALQNNAIEEFKRYYRSVDALLIDDIQFFANKERSQEEFFHTFNALLEGNQQIILTSDRYPKEINGVEDRLKSRFGWGLTVAIEPPELETRVAILMKKADENDIRLPGEVAFFIAKRLRSNVRELEGALNRVIANANFTGRAITIDFVREALRDLLALQEKLVTIDNIQKTVAEYYKIKVADLLSKRRSRSVARPRQMAMALAKELTNHSLPEIGDAFGGRDHTTVLHACRKIEQLREESHDIKEDFSNLIRTLSS
# partner: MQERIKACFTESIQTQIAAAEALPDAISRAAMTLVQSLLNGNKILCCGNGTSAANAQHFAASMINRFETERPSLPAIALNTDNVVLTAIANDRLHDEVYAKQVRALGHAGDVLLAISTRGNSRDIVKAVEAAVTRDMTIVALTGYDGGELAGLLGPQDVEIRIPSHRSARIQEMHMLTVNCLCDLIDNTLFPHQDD
# Variants of: B1
# Conditions: with diaa_ecoli diaA
row,Variant,effect of a mutation on the interaction
1,MSLSLWQQCLARLQDELPATAFSMWIRPLQAELSDNTLALYAPNRFVLDWVRDKYLNNINGLLTSFCGADAPQLRFEVGTKPVTQTPQAAVTSNVAAPAQVAQTQPQRAAPSTRSGWDNVPAPAEPTYRSNVNVKHTFDNFVEGKSNQLARAAARQVADNPGGAYNPLFLYGGTGLGKTHLLHAVGNGIMARKPNAKVVYMHSERFVQDMVKALQNNAIEEFKRYYRSVDALLIDDIQFFANKERSQEEFFHTFNALLEGNQQIILTSDRYPKEINGVEDRLKSRFGWGLTVAIEPPELETRVAILMKKADENDIRLPGEVAFFIAKRLRSNVRELEGALNRVIANANFTGRAITIDFVREALRDLLALQEKLVTIDNIQKTVAEYYKIKVADLLSKRRSRSVARPRQMAMALAKELTNHSLPEIGDAFGGRDHTTVLHACRKIEQLREESHDIKEDFSNLIRTLSS [E21A],decreasing interaction
2,MSLSLWQQCLARLQDELPATEFSMWIRPLQAELSDNTLALYAPNRAVLDWVRDKYLNNINGLLTSFCGADAPQLRFEVGTKPVTQTPQAAVTSNVAAPAQVAQTQPQRAAPSTRSGWDNVPAPAEPTYRSNVNVKHTFDNFVEGKSNQLARAAARQVADNPGGAYNPLFLYGGTGLGKTHLLHAVGNGIMARKPNAKVVYMHSERFVQDMVKALQNNAIEEFKRYYRSVDALLIDDIQFFANKERSQEEFFHTFNALLEGNQQIILTSDRYPKEINGVEDRLKSRFGWGLTVAIEPPELETRVAILMKKADENDIRLPGEVAFFIAKRLRSNVRELEGALNRVIANANFTGRAITIDFVREALRDLLALQEKLVTIDNIQKTVAEYYKIKVADLLSKRRSRSVARPRQMAMALAKELTNHSLPEIGDAFGGRDHTTVLHACRKIEQLREESHDIKEDFSNLIRTLSS [F46A],disrupting interaction
